Source: US20220000762A1, “COMPOSITIONS FOR TREATING OXIDATIVE STRESS-ASSOCIATED SKIN DISEASES AND SKIN AGEING AND DIAGNOSIS OF OXIDATIVE STRESS-ASSOCIATED SKIN DISEASES” (priority 2019, published 2022)

Legend:
Ferrozine assay = type: biochemical; conditions: incubation 17 hours
Method: The reagents used in the ferrozine assay included 100 μl of 50 mM iron ammonium dodecahydrate, 100 μl 2 mM ferrozine in H2O, and RoxP (50 μl) resulting in various RoxP concentrations indicated in the graph, diluted from a stock solution of 2 mg/ml RoxP in PBS. Incubation was Incubation 17 hours.

HaCat cells = test: MTT viability assay, paraquat oxidative stress, keratinocytes; type: cell-based, human
Method: (§1) Human keratinocytes (HaCat cells; disclosed in Boukamp et al. 1988 J Cell Biol 106:761-71 and available from Deutsches Krebsforschungszentrum, DKFZ, info@cell-lines-service.de; and also commercially available for example from Addexbio, San Diego, Calif., catalogue number T0020001) were grown in SFM medium supplemented with L-glutamine, EGF (epidermal growth factor) and bovine pituitary extract (Gibson, Invitrogen) until 90% confluency in 96-well plates (Nunc A/S, Roskilde, Denmark). Human monocytes (THP-1 cells; disclosed in Tsuchiya et al. 1980 Int J Cancer 26:171-6; commercially available for example from Sigma-Aldrich, catalogue number 88081201; kindly provided by Dr Arne Egesten, Lund University) were cultured in RPMI 1640 medium supplemented with Glutamax-1 (Gibco®, ThermoFisher Scientific), 100 μg/ml streptomycin, 100 μg/ml penicillin, and 10% v/v foetal calf serum (ThermoFisher Scientific). All cells were grown at 37° C. in 5% CO2 and 95% humidity.
(§2) HaCat cells cultured to 90% confluency, or THP-1 cells (1.2×10^6 cells/well) in a 96-well plate were treated with 2 mM paraquat (Sigma-Aldrich) and/or 5 μM RoxP for 24-48 h. […] Viability was measured by the addition of 0.5 mg/ml 3-(4,5-demethylthiazol-2-yl)-2,5-diphenyltetrazolium bromide (MTT) for 1-5 hours. […] The samples incubated for 30 minutes and absorbance at 550 nm was measured using a Wallac 1420 Multilabel Counter ([…]). […]

Lyophilisation of RoxP = type: physicochemical; conditions: RoxP dissolved in water, absence of further excipients
Text: Lyophilisation of proteins is also a well-established procedure in the art and typically employs an aqueous solution of the protein to be lyophilised, optionally admixed with one or more suitable lyophilisation excipients, such as trehalose, sucrose, raffinose, maltodextrin, mannitol, and/or dextran. […] The inventors have additionally observed that mannitol, and particularly 2-6% w/v, preferably 2-5% w/v, more preferably 2-4% w/v, or even more preferably 2-3% w/v mannitol (relative to the volume of the solution to be lyophilised) was especially advantageous for production of stable cake and preservation of RoxP activity.

[1] = Lipid hydroperoxide assay in UV irradiated and non-irradiated plasma; type: biochemical; conditions: 300 μg RoxP in 500 μl blood, plasma both irradiated (UVA/UVB) and non-irradiated
Method: Hydroperoxides react with Fe^2+ ions to produce Fe^3+ ions which are detected using thiocyanate ion as chromogen. Lower abundance of Fe^3+ ions results in lowered absorbance, indicating lower level of lipid hydroperoxides in irradiated plasma.
Blood was collected in EDTA tubes. Samples containing 500 μl blood+150 μl RoxP (300 μg RoxP), or 500 μl blood+150 μl PBS, were subjected to irradiation:
UVA—irradiation 3×5000 μJ/cm^2; tubes were rotated between irradiation steps; or
Controls having composition identical to the samples, but not irradiated, were included in the experiment.
The blood samples were centrifuged at 1000×g, plasma was collected and frozen at −80° C.
Lipid hydroperoxides were quantified using lipid hydroperoxide assay kit (Cayman Chemical, item no. Item No. 705002).

[2] = Singlet Oxygen Sensor Green assay with UV-exposed porphyrins; type: biochemical; conditions: 1 μM Coproporphyrin III or Protoporphyrin IX, 10 min UV lamp, varying amounts of RoxP
Method: The Singlet Oxygen Sensor Green dye was dissolved in Methanol and added in PBS buffer to reach a final concentration of 0.4 μM. This solution was distributed in a clear 96 well plate. To the wells 1 μM Coproporphyrin III, or 1 μM Protoporphyrin IX was added. Then varying amounts of RoxP were added. Each condition was set up as 4 replicas. Two of the replicas were covered by aluminium foil during the exposure, while two wells were exposed for 10 min to a UV lamp. After exposure, the fluorescence of the Singlet Oxygen Sensor Green dye was read out indicating the amount of singlet oxygen generated.

THP-1 cells = test: MTT viability assay, paraquat oxidative stress, monocytes; type: cell-based, human
Method: as §1, §2

[3] = Deoxyribose (TBA-MDA) assay; type: biochemical; conditions: 2 mg/ml RoxP, 37° C., 1 h
Method: Deoxyribose assay is a well-established method to measure generation of hydroxyl radicals in biological systems and for evaluating the ability of antioxidants to reduce .OH radical generation. Such assays are described for example in Gutteridge & Halliwell (Biochem J. 1988, vol. 253(3), 932-933) and references therein. In particular, deoxyribose incubated with H2O2 and Fe2^+ (or Fe3^+ plus a reductant) is degraded into products that can react to form thiobarbituric acid-malondialdehyde (classic TBA-MDA assay) chromogen. This reaction is driven by —OH radicals. A reduction in prevalence of .OH radicals will result in fewer formed complexes and lower absorbance.
A reaction mixture containing 5 mM 2-deoxyribose, 100 μM FeCl3, 100 μM EDTA, 1 mM H2O2, and 7.6 μg/ml ascorbic acid in buffer A (20 mM KH2PO4—KOH, pH 7.4), including or not 2 mg/ml RoxP, in triplicate, was incubated at 37° C. for 1 h (total volume 1 ml). After incubation, 1% w/v TBA (thiobarbituric acid) in 50 mM NaOH, and 2-8% v/v TCA (trichloroacetic acid) was added, followed by incubation at 95° C. for 15 minutes, and reading of absorbance at 532 nm.

B1: RoxP: radical oxygenase of Propionibacterium acnes, secreted antioxidant protein of C. acnes; SEQ ID NO: 1 for strain KPA171202 (protein)
chain: MFVQIAASLAAASSIALGIPGAATPIDESQLPVGPQVSVTDSAQHTGPFAASSPLTITVKPGAPCVRADGYQESMVTRVLDDKGHQVWTGTFDESKLIGGTGLGTATFHVGSPAAAFNFHGSERTTYRTLSYCAYPHYVNGTRERLSQVSVKTFMVDPALN
modifications: Cutibacterium acnes
- reduction of Fe^3+ to Fe^2+ (Ferrozine assay): confirmed reduction of Fe^3+ to Fe^2+
- effect on negative oxidative effect of paraquat (cell viability) (HaCat cells; 2 mM paraquat, 5 μM RoxP (1:400 RoxP:oxidizer), 24 h, responded less well): completely inhibited
- overall viability in the absence of an added oxidizer (HaCat cells; no paraquat): increase the overall viability
- preservation of RoxP activity after lyophilisation (Lyophilisation of RoxP): satisfactorily preserved the activity
- lipid hydroperoxide levels [1]: reduced
- generation of radicals formed through the porphyrins (singlet oxygen) [2]: efficiently inhibited
- effect on negative oxidative effect of paraquat (cell viability) (THP-1 cells; 2 mM paraquat, 5 μM RoxP (1:400 RoxP:oxidizer), 48 h, effect more prominent than in keratinocytes): completely inhibited
- overall viability in the absence of an added oxidizer (THP-1 cells; no paraquat): increase the overall viability
- absorbance at 532 nm (generation of .OH radicals) [3]: reduced
